Assay results published in patent publication US20140087995A1 (published 2014).
Numbered stars: 1 amine (or outer) side, 2 acyl side, 3 side chain; on linkers, the order of the positions; unused ones are H or OH. Bridge positions count the residues as written; N and C are the ends. Side chains are listed from the residue outwards. Ends that are not written are not given here. * marks the point of attachment. C20 diacid = O=C(O)CCCCCCCCCCCCCCCCCCC(=O)*; γGlu = O=C(O)[C@H](CCC(=O)[*:2])N[*:1]

T1: human amylin receptor (amylin 3(a) receptor: human calcitonin receptor with RAMP-3) (human, UniProt P30988 25-474; O60896 24-148)
T1 sequence (looked up) 1: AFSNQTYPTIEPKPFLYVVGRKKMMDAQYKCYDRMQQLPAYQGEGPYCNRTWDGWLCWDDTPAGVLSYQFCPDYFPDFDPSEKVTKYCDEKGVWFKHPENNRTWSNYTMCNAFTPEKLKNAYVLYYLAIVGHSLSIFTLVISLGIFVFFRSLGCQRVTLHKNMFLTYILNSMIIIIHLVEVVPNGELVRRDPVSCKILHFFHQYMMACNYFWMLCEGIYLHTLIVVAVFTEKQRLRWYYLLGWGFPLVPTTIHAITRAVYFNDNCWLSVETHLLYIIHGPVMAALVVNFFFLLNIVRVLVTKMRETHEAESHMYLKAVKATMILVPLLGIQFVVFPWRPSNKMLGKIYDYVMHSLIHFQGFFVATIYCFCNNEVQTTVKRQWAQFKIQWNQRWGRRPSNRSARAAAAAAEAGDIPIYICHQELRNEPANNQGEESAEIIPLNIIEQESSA
T1 sequence (looked up) 2: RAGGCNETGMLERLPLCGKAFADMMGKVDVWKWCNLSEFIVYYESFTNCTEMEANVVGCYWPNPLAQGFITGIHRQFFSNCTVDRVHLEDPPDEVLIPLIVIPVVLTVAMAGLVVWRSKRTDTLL

T2: human calcitonin receptor (human, UniProt P30988 25-474)
T2 sequence (looked up): T1 sequence (looked up) 1

B1: N^ε1-[(4S)-4-carboxy-4-(19-carboxynonadecanoylamino)butanoyl]-[Arg17,Pro21,Pro27,Lys35]-h-amylin (peptide)
peptide: K([γGlu-C20 diacid])CNTATCATQRLANFLRHSSPNFGAIPSSTNVGSKTY-NH2
modifications: disulfide 2-7; N-terminus assumed
SMILES: CC[C@H](C)[C@H](NC(=O)[C@H](C)NC(=O)CNC(=O)[C@H](Cc1ccccc1)NC(=O)[C@H](CC(N)=O)NC(=O)[C@@H]1CCCN1C(=O)[C@H](CO)NC(=O)[C@H](CO)NC(=O)[C@H](Cc1c[nH]cn1)NC(=O)[C@H](CCCNC(=N)N)NC(=O)[C@H](CC(C)C)NC(=O)[C@H](Cc1ccccc1)NC(=O)[C@H](CC(N)=O)NC(=O)[C@H](C)NC(=O)[C@H](CC(C)C)NC(=O)[C@H](CCCNC(=N)N)NC(=O)[C@H](CCC(N)=O)NC(=O)[C@@H](NC(=O)[C@H](C)NC(=O)[C@@H]1CSSC[C@H](NC(=O)[C@@H](N)CCCCNC(=O)CC[C@H](NC(=O)CCCCCCCCCCCCCCCCCCC(=O)O)C(=O)O)C(=O)N[C@@H](CC(N)=O)C(=O)N[C@@H]([C@@H](C)O)C(=O)N[C@@H](C)C(=O)N[C@@H]([C@@H](C)O)C(=O)N1)[C@@H](C)O)C(=O)N1CCC[C@H]1C(=O)N[C@@H](CO)C(=O)N[C@@H](CO)C(=O)N[C@H](C(=O)N[C@@H](CC(N)=O)C(=O)N[C@H](C(=O)NCC(=O)N[C@@H](CO)C(=O)N[C@@H](CCCCN)C(=O)N[C@H](C(=O)N[C@@H](Cc1ccc(O)cc1)C(N)=O)[C@@H](C)O)C(C)C)[C@@H](C)O
notes: also called compound 35
B2: N{Alpha-1}-[(4S)-4-carboxy-4-(19-carboxynonadecanoylamino)butanoyl]-[Glu14,Arg17,Pro21,Pro27,Lys34]-h-amylin (peptide)
peptide: {C20 diacid-γGlu}-KCNTATCATQRLAEFLRHSSPNFGAIPSSTNVGKNTY-NH2
modifications: disulfide 2-7
SMILES: CC[C@H](C)[C@H](NC(=O)[C@H](C)NC(=O)CNC(=O)[C@H](Cc1ccccc1)NC(=O)[C@H](CC(N)=O)NC(=O)[C@@H]1CCCN1C(=O)[C@H](CO)NC(=O)[C@H](CO)NC(=O)[C@H](Cc1c[nH]cn1)NC(=O)[C@H](CCCNC(=N)N)NC(=O)[C@H](CC(C)C)NC(=O)[C@H](Cc1ccccc1)NC(=O)[C@H](CCC(=O)O)NC(=O)[C@H](C)NC(=O)[C@H](CC(C)C)NC(=O)[C@H](CCCNC(=N)N)NC(=O)[C@H](CCC(N)=O)NC(=O)[C@@H](NC(=O)[C@H](C)NC(=O)[C@@H]1CSSC[C@H](NC(=O)[C@H](CCCCN)NC(=O)CC[C@H](NC(=O)CCCCCCCCCCCCCCCCCCC(=O)O)C(=O)O)C(=O)N[C@@H](CC(N)=O)C(=O)N[C@@H]([C@@H](C)O)C(=O)N[C@@H](C)C(=O)N[C@@H]([C@@H](C)O)C(=O)N1)[C@@H](C)O)C(=O)N1CCC[C@H]1C(=O)N[C@@H](CO)C(=O)N[C@@H](CO)C(=O)N[C@H](C(=O)N[C@@H](CC(N)=O)C(=O)N[C@H](C(=O)NCC(=O)N[C@@H](CCCCN)C(=O)N[C@@H](CC(N)=O)C(=O)N[C@H](C(=O)N[C@@H](Cc1ccc(O)cc1)C(N)=O)[C@@H](C)O)C(C)C)[C@@H](C)O
notes: also called compound 36
B3: N^ε1-[(4S)-4-carboxy-4-[[(4S)-4-carboxy-4-(19-carboxynonadecanoylamino)butanoyl]amino]butanoyl]-[Asp14,Arg17,Pro21,Pro27,Asp35]-h-amylin (peptide)
peptide: K([γGlu-γGlu-C20 diacid])CNTATCATQRLADFLRHSSPNFGAIPSSTNVGSDTY-NH2
modifications: disulfide 2-7; N-terminus assumed
SMILES: CC[C@H](C)[C@H](NC(=O)[C@H](C)NC(=O)CNC(=O)[C@H](Cc1ccccc1)NC(=O)[C@H](CC(N)=O)NC(=O)[C@@H]1CCCN1C(=O)[C@H](CO)NC(=O)[C@H](CO)NC(=O)[C@H](Cc1c[nH]cn1)NC(=O)[C@H](CCCNC(=N)N)NC(=O)[C@H](CC(C)C)NC(=O)[C@H](Cc1ccccc1)NC(=O)[C@H](CC(=O)O)NC(=O)[C@H](C)NC(=O)[C@H](CC(C)C)NC(=O)[C@H](CCCNC(=N)N)NC(=O)[C@H](CCC(N)=O)NC(=O)[C@@H](NC(=O)[C@H](C)NC(=O)[C@@H]1CSSC[C@H](NC(=O)[C@@H](N)CCCCNC(=O)CC[C@H](NC(=O)CC[C@H](NC(=O)CCCCCCCCCCCCCCCCCCC(=O)O)C(=O)O)C(=O)O)C(=O)N[C@@H](CC(N)=O)C(=O)N[C@@H]([C@@H](C)O)C(=O)N[C@@H](C)C(=O)N[C@@H]([C@@H](C)O)C(=O)N1)[C@@H](C)O)C(=O)N1CCC[C@H]1C(=O)N[C@@H](CO)C(=O)N[C@@H](CO)C(=O)N[C@H](C(=O)N[C@@H](CC(N)=O)C(=O)N[C@H](C(=O)NCC(=O)N[C@@H](CO)C(=O)N[C@@H](CC(=O)O)C(=O)N[C@H](C(=O)N[C@@H](Cc1ccc(O)cc1)C(N)=O)[C@@H](C)O)C(C)C)[C@@H](C)O
notes: also called compound 2
B4: N^ε1-[(4S)--4-carboxy-4-(19-carboxynonadecanoylamino)butanoyl]-[Glu14,Arg17,Pro21,Pro27,Pro37]-h-amylin (peptide)
peptide: K([γGlu-C20 diacid])CNTATCATQRLAEFLRHSSPNFGAIPSSTNVGSNTP-NH2
modifications: disulfide 2-7; N-terminus assumed
SMILES: CC[C@H](C)[C@H](NC(=O)[C@H](C)NC(=O)CNC(=O)[C@H](Cc1ccccc1)NC(=O)[C@H](CC(N)=O)NC(=O)[C@@H]1CCCN1C(=O)[C@H](CO)NC(=O)[C@H](CO)NC(=O)[C@H](Cc1c[nH]cn1)NC(=O)[C@H](CCCNC(=N)N)NC(=O)[C@H](CC(C)C)NC(=O)[C@H](Cc1ccccc1)NC(=O)[C@H](CCC(=O)O)NC(=O)[C@H](C)NC(=O)[C@H](CC(C)C)NC(=O)[C@H](CCCNC(=N)N)NC(=O)[C@H](CCC(N)=O)NC(=O)[C@@H](NC(=O)[C@H](C)NC(=O)[C@@H]1CSSC[C@H](NC(=O)[C@@H](N)CCCCNC(=O)CC[C@H](NC(=O)CCCCCCCCCCCCCCCCCCC(=O)O)C(=O)O)C(=O)N[C@@H](CC(N)=O)C(=O)N[C@@H]([C@@H](C)O)C(=O)N[C@@H](C)C(=O)N[C@@H]([C@@H](C)O)C(=O)N1)[C@@H](C)O)C(=O)N1CCC[C@H]1C(=O)N[C@@H](CO)C(=O)N[C@@H](CO)C(=O)N[C@H](C(=O)N[C@@H](CC(N)=O)C(=O)N[C@H](C(=O)NCC(=O)N[C@@H](CO)C(=O)N[C@@H](CC(N)=O)C(=O)N[C@H](C(=O)N1CCC[C@H]1C(N)=O)[C@@H](C)O)C(C)C)[C@@H](C)O
notes: also called compound 12
B5: N^ε1-[(4S)-4-carboxy-4-[[(4S)-4-carboxy-4-(19-carboxynonadecanoylamino)butanoyl]amino]butanoyl]-[Glu14,Arg17,Pro21,Pro27,Pro37]-h-amylin (peptide)
peptide: K([γGlu-γGlu-C20 diacid])CNTATCATQRLAEFLRHSSPNFGAIPSSTNVGSNTP-NH2
modifications: disulfide 2-7; N-terminus assumed
SMILES: CC[C@H](C)[C@H](NC(=O)[C@H](C)NC(=O)CNC(=O)[C@H](Cc1ccccc1)NC(=O)[C@H](CC(N)=O)NC(=O)[C@@H]1CCCN1C(=O)[C@H](CO)NC(=O)[C@H](CO)NC(=O)[C@H](Cc1c[nH]cn1)NC(=O)[C@H](CCCNC(=N)N)NC(=O)[C@H](CC(C)C)NC(=O)[C@H](Cc1ccccc1)NC(=O)[C@H](CCC(=O)O)NC(=O)[C@H](C)NC(=O)[C@H](CC(C)C)NC(=O)[C@H](CCCNC(=N)N)NC(=O)[C@H](CCC(N)=O)NC(=O)[C@@H](NC(=O)[C@H](C)NC(=O)[C@@H]1CSSC[C@H](NC(=O)[C@@H](N)CCCCNC(=O)CC[C@H](NC(=O)CC[C@H](NC(=O)CCCCCCCCCCCCCCCCCCC(=O)O)C(=O)O)C(=O)O)C(=O)N[C@@H](CC(N)=O)C(=O)N[C@@H]([C@@H](C)O)C(=O)N[C@@H](C)C(=O)N[C@@H]([C@@H](C)O)C(=O)N1)[C@@H](C)O)C(=O)N1CCC[C@H]1C(=O)N[C@@H](CO)C(=O)N[C@@H](CO)C(=O)N[C@H](C(=O)N[C@@H](CC(N)=O)C(=O)N[C@H](C(=O)NCC(=O)N[C@@H](CO)C(=O)N[C@@H](CC(N)=O)C(=O)N[C@H](C(=O)N1CCC[C@H]1C(N)=O)[C@@H](C)O)C(C)C)[C@@H](C)O
notes: also called compound 13
B6: N^α1-[2-[2-[2-[[2-[2-[2-[[(4S)-4-carboxy-4-(19-carboxynonadecanoylamino)butanoyl]amino]ethoxy]ethoxy]acetyl]amino]ethoxy]ethoxy]acetyl]-[Glu14,Arg17,Pro21,Pro27 … (peptide)
peptide: KCNTATCATQRLAEFLRHSSPNFGAIPSSTNVGSNTY
modifications: C20 diacid-gGlu-2xOEG on the alpha amino group of the N-terminal residue; disulfide bridge Cys2-Cys7; C-terminal amide
notes: also called compound 19
B7: N^α1 N^α1-[(4S)-4-carboxy-4-[[(4S)-4-carboxy-4-(19-carboxynonadecanoylamino)butanoyl]amino]butanoyl]-[Glu14,Arg17,Pro21,Pro27]-h-amylin (peptide)
peptide: {C20 diacid-γGlu-γGlu}-KCNTATCATQRLAEFLRHSSPNFGAIPSSTNVGSNTY-NH2
modifications: disulfide 2-7
SMILES: CC[C@H](C)[C@H](NC(=O)[C@H](C)NC(=O)CNC(=O)[C@H](Cc1ccccc1)NC(=O)[C@H](CC(N)=O)NC(=O)[C@@H]1CCCN1C(=O)[C@H](CO)NC(=O)[C@H](CO)NC(=O)[C@H](Cc1c[nH]cn1)NC(=O)[C@H](CCCNC(=N)N)NC(=O)[C@H](CC(C)C)NC(=O)[C@H](Cc1ccccc1)NC(=O)[C@H](CCC(=O)O)NC(=O)[C@H](C)NC(=O)[C@H](CC(C)C)NC(=O)[C@H](CCCNC(=N)N)NC(=O)[C@H](CCC(N)=O)NC(=O)[C@@H](NC(=O)[C@H](C)NC(=O)[C@@H]1CSSC[C@H](NC(=O)[C@H](CCCCN)NC(=O)CC[C@H](NC(=O)CC[C@H](NC(=O)CCCCCCCCCCCCCCCCCCC(=O)O)C(=O)O)C(=O)O)C(=O)N[C@@H](CC(N)=O)C(=O)N[C@@H]([C@@H](C)O)C(=O)N[C@@H](C)C(=O)N[C@@H]([C@@H](C)O)C(=O)N1)[C@@H](C)O)C(=O)N1CCC[C@H]1C(=O)N[C@@H](CO)C(=O)N[C@@H](CO)C(=O)N[C@H](C(=O)N[C@@H](CC(N)=O)C(=O)N[C@H](C(=O)NCC(=O)N[C@@H](CO)C(=O)N[C@@H](CC(N)=O)C(=O)N[C@H](C(=O)N[C@@H](Cc1ccc(O)cc1)C(N)=O)[C@@H](C)O)C(C)C)[C@@H](C)O
notes: also called compound 15

Each binder was assayed against T1, human amylin receptor (amylin 3(a) …) (assay: cell-based or functional assay).

| hAmylin-R funct. EC50 [nM] | Binder |
| --- | --- |
| 0.364 | B1 |
| 0.189 | B2 |
| 0.182 | B3 |
| 0.101 | B4 |
| 0.213 | B5 |
| 0.307 | B6 |
| 0.386 | B7 |

These binders were tested against T2, human calcitonin receptor (assay: cell-based or functional assay).

| Ratio hCT/hAmylin funct. | hCTR funct. EC50 [nM] | Binder |
| --- | --- | --- |
| 15 | 5.46 | B1 |
| 6.8 | 1.28 | B2 |
| 16.4 | 3 | B3 |
| 1.8 | 0.185 | B4 |
| 2.2 | 0.47 | B5 |
| 17.4 | 5.32 | B6 |
| 8.9 | 3.43 | B7 |
